Residue numbers refer to the chain shown, from its start. Some results are limits rather than exact numbers.

Assay [1] addresses T1, recombinant CD47 extracellur domain protein (UniProt Q08722 19-139, limits assumed).
T1 construct: extracellular domain; ELISA antigen
The assay is described as follows: ELISA. In general terms: An ELISA detects its analyte on a solid surface through an enzyme-linked reagent.

The target in assay [2] is T2, recombinant PD-L1 extracellur domain protein (UniProt Q9NZQ7 19-238, limits assumed).
T2 construct: extracellular domain; ELISA antigen
Nature of the assay: ELISA.

Assay [3] has as its target T3, PD-L1 and CD47 double positive CHO cell pool (UniProt Q9NZQ7 19-290; Q08722 19-323, limits assumed).
T3 construct: whole, on cells; Two separate membrane proteins on one cell, not a complex; also called CD47 and PD-L1 double positive cells; double targets positive CHO cell
Nature of the assay: flow cytometry, double positive against single positive CHO cell pools. In general terms: In flow cytometry, cells or beads pass a laser one at a time.

Assay [4] has as its target T4, recombinant HER2 extracellur domain protein (UniProt P04626 23-652).
T4 construct: extracellular domain; ELISA antigen
Nature of the assay: ELISA.

The target in assay [5] is T5, HER2 and CD47 double positive CHO cell pool (UniProt P04626 23-1255; Q08722 19-323, limits assumed).
T5 construct: whole, on cells; Two separate membrane proteins on one cell, not a complex; also called CD47+HER2+ double positive cells; double targets positive CHO cell
Nature of the assay: flow cytometry, double positive against single positive CHO cell pools.

T1 sequence (Q08722 19-139 limits assumed): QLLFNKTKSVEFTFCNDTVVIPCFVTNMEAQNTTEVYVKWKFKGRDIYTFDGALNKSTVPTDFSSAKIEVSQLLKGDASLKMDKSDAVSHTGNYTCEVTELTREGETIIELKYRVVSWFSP
T3 sequence (Q9NZQ7 19-290 limits assumed, chain 1 of 2): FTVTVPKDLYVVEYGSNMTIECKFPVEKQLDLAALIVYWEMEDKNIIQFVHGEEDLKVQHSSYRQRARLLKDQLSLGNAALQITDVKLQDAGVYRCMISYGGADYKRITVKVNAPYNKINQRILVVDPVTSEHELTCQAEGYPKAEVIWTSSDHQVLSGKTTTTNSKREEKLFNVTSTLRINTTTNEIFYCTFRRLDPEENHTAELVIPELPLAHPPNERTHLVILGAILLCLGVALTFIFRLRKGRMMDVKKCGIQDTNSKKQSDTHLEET
T3 sequence (Q08722 19-323 limits assumed, chain 2 of 2): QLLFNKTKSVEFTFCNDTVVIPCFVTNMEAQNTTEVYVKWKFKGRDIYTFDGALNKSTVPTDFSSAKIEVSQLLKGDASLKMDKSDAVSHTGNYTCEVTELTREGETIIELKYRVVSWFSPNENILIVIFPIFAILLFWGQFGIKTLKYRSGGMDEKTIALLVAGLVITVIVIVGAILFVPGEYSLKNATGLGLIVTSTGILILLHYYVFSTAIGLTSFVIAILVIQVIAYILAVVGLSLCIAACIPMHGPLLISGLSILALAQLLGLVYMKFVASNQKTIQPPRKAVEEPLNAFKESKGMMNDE
T2 sequence (Q9NZQ7 19-238 limits assumed): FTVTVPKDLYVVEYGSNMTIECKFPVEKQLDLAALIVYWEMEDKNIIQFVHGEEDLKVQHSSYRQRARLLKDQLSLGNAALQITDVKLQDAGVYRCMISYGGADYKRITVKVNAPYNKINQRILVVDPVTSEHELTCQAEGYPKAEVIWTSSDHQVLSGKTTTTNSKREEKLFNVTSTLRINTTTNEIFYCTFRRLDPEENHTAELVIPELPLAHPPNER

B1: AbD066, bi-specific GCT Ab against HER2 and CD47 (bispecific antibody, V domains shown)
VH: EVQLVESGGGLVQPGGSLRLSCAASGFNIKDTYIHWVRQAPGKEREWVARIYPTNGYTRYADSVKGRFTISRDNAKDTVYLQMNSLRAEDTAVYYCSRWGGDGFYAMDYWGQGTLVTVSS
VL: ELQVIQPDKSVSVAAGESAILHCTVTSLIPVGPIQWFRGAGPARELIYNQKEGHFPRVTTVSESTKRNNMDFSIRIGNITPADAGTYYCVKFRKGSPDDVEFKSGAGTELSVRA
notes: Anti-HER2 single domain on IgG1 heavy chain, SIRPa domain on kappa chain; Fc of IgG1 wild type; Parents named as H069 and S012; also called ABP366 (AbD066 and AbD068-1)
B1: the binding acitivity in assay [1] was over 100 nM.

B2: AbD036, bi-specific GCT Ab against PD-L1 and CD47 (bispecific antibody, human IgG1, kappa, L234A L235A)
heavy: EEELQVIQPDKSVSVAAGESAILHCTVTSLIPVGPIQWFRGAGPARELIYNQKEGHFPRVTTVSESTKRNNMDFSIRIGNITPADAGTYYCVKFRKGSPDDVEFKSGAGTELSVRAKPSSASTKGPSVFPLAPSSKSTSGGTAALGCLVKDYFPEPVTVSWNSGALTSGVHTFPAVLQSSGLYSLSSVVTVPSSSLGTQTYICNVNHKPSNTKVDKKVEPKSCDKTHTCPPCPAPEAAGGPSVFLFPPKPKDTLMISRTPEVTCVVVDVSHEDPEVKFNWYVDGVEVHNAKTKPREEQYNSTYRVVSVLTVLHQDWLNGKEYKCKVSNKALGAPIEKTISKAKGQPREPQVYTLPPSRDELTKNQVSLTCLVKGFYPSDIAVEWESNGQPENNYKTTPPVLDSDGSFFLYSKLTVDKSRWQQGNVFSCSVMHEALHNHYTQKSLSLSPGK
light: DSPDRPWNPPTFSPALLVVTEGDNATFTCSFSNTSESFVLNWYRMSPSNQTDKLAAFPEDRSQPGQDCRFRVTQLPNGRDFHMSVVRARRNDSGTYLCGAISRAPKAQIKESLRAELRVTERRAEVSSRTVAAPSVFIFPPSDEQLKSGTASVVCLLNNFYPREAKVQWKVDNALQSGNSQESVTEQDSKDSTYSLSSTLTLSKADYEKHKVYACEVTHQGLSSPVTKSFNRGEC
notes: SIRPa domain on IgG1 heavy chain, PD-1 IgV domain on kappa chain; also called ABP336
For the molecule B2, the binding acitivity in assay [2] and in assay [1] was over 100 nM throughout. For the same molecule, the “fold stronger staining than on the single target positive cells” value (“fold stronger staining than” below) in assay [3] was about 10 fold.

B3: AbD037, bi-specific GCT Ab against PD-L1 and CD47 (bispecific antibody, human IgG1, kappa, L234A L235A)
heavy: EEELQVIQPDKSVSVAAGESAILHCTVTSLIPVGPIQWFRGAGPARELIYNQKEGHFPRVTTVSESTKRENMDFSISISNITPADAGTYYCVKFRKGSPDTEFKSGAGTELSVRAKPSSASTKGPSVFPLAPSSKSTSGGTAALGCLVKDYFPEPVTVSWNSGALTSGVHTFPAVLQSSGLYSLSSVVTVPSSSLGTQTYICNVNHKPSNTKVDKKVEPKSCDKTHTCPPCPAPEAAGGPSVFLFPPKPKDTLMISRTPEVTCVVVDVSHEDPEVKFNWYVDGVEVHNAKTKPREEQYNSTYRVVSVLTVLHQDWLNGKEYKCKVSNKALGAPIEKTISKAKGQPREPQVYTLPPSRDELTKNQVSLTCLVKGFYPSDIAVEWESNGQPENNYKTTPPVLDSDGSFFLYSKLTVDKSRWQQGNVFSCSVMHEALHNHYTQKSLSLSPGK
light: B2 light with R103L
notes: SIRPa domain on IgG1 heavy chain, PD-1 IgV domain on kappa chain; Parents named as P048 and S007; also called ABP336
Consider B3, for which the binding acitivity in assay [2] and in assay [1] was over 100 nM throughout. Further, in assay [3], the “fold stronger staining than” value is about 10 fold.

B4: AbD068-1, bi-specific GCT Ab against HER2 and CD47 (bispecific antibody, human IgG1, kappa, V domains shown)
VH: QVQLVQSGGGLVQAGGSLRLSCAASGRTFSSYAMAWFRQAPGKEREFVAAISWSGANIYVADSVKGRFTISRDNAKDTVYLQMNSLKPEDTAVYYCAVKLGFAPVEERQYDYWGQGTQVTVSS
VL: not shown
notes: Anti-HER2 single domain on IgG1 heavy chain, SIRPa domain on kappa chain; Fc of IgG1 wild type; Parents named as H16 (H016) and S007; also called ABP366 (AbD066 and AbD068-1)
Turning to B4, the figures for the binding acitivity in assay [4] and in assay [1] were about 100 nM and over 100 nM, respectively. Further, the “fold stronger staining than” value in assay [5] was about 100 fold.
